B1: Mt-Ku (Mycobacterium tuberculosis Ku-like protein, ORF Rv0937c), recombinant histidine-tagged (other)
chain: MRAIWTGSIAFGLVNVPVKVYSATADHDIRFHQVHAKDNGRIRYKRVCEACGEVVDYRDLARAYESGDGQMVAITDDDIASLPEERSREIEVLEFVPAADVDPMMFDRSYFLEPDSKSSKSYVLLAKTLAETDRMAIVHFTLRNKTRLAALRVKDFGKREVMMVHTLLWPDEIRDPDFPVLDQKVEIKPAELKMAGQVVDSMADDFNPDRYHDTYQEQLQELIDTKLEGGQAFTAEDQPRLLDEPEDVSDLLAKLEASVKARSKANSNVPTPP

Key:
[1] = target: Mt-Lig expressed in yeast as amino-terminal Myc epitope-NLS fusion protein (pNLS16) (Mycobacterium tuberculosis) (UniProt P9WNV3); test: cell-based or functional assay
Sequence of Mt-Lig expressed in yeast as amino-terminal Myc epitope-NLS fusion protein (pNLS16) (Mycobacterium tuberculosis) (P9WNV3 whole entry, the tested form may be a part): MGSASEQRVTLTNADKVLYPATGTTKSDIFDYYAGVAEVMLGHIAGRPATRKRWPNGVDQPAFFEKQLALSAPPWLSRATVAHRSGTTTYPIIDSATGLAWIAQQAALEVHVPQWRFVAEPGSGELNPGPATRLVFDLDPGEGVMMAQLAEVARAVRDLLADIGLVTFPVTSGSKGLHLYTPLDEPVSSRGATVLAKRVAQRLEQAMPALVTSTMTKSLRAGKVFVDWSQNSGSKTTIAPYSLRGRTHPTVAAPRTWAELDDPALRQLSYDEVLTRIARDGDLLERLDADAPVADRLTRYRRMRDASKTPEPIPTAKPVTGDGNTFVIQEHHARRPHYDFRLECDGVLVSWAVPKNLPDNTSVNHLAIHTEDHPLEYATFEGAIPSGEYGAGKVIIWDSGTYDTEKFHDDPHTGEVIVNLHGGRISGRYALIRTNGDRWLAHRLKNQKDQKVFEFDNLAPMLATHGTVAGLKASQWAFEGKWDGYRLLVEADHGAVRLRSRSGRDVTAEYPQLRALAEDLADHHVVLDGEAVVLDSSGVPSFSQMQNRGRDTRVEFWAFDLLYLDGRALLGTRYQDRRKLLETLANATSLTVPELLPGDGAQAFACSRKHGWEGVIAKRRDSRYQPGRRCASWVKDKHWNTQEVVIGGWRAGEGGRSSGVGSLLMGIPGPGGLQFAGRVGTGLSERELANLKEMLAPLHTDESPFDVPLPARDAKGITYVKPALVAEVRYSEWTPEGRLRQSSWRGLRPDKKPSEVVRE

[2] = target: Mt-Lig (Mycobacterium tuberculosis ATP-dependent ligase, ORF Rv0938), recombinant histidine-tagged (Mycobacterium tuberculosis, UniProt P9WNV3 1-759); test: cell-based or functional assay
Sequence of Mt-Lig (Mycobacterium tuberculosis ATP-dependent ligase, ORF Rv0938), recombinant histidine-tagged (P9WNV3 whole entry): as the sequence (P9WNV3 whole entry, the tested form may be a part) above

Row | Molecule | NHEJ frequency in yku70 mutant yeast (suicide deletion assay) (% of the wild-type yeast level) [1] | DNA ligation activity of Mt-Lig on dsDNA fragments upon addition of Mt-Ku [2] | activity of Mt-Lig in an in vitro plasmid repair assay [2]
1 | Mt-Ku expressed in yeast as amino-terminal Myc epitope-NLS fusion protein (pNLS15) (from UniProt P9WKD8 1-273) | 50 | – | –
2 | B1 | – | > 30 fold | 20 fold

From patent US20110318789A1 (CAMBRIDGE ENTERPRISE, published 2011)
